{"source": "the supplement of paper PMC9112550", "about": "“Optimization of the antimicrobial peptide Bac7 by deep mutational scanning” (BMC Biology, 2022);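 further: peptides expressed intracellularly from a pBAD plasmid library in pooled LB shake-flask culture, induced with 0.3% L-arabinose, DNA abundance read by NGS, three biological replicates, DESeq2 with apeglm shrinkage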"}
{"system": "Escherichia coli TOP10", "test": "shrunken log2 fold change of peptide-encoding DNA abundance (4.5 h post-induction vs induction); higher = less antimicrobial activity (less host growth inhibition)", "conditions": "time post-induction: 4.5 h; library: site-saturation at positions 5, 18, 19, 20"}
{"sequence": "RRIRPRPPRLPRPRPRPMVVPRP", "shrunken log2 fold change": -0.153}
{"sequence": "RRIRKRPPRLPRPRPRPQKVPRP", "shrunken log2 fold change": -0.0143}
{"sequence": "RRIRGRPPRLPRPRPRPAQWPRP", "shrunken log2 fold change": 0.933}
{"sequence": "RRIRARPPRLPRPRPRPNYKPRP", "shrunken log2 fold change": -0.345}
{"sequence": "RRIRYRPPRLPRPRPRPLEYPRP", "shrunken log2 fold change": -0.443}
{"sequence": "RRIRWRPPRLPRPRPRPPTDPRP", "shrunken log2 fold change": 0.415}
{"sequence": "RRIRDRPPRLPRPRPRPADMPRP", "shrunken log2 fold change": -0.119}
{"sequence": "RRIRQRPPRLPRPRPRPRDYPRP", "shrunken log2 fold change": 0.0272}
{"sequence": "RRIRQRPPRLPRPRPRPQDSPRP", "shrunken log2 fold change": -0.297}
{"sequence": "RRIRQRPPRLPRPRPRPPVEPRP", "shrunken log2 fold change": 0.265}
{"sequence": "RRIRERPPRLPRPRPRPVVDPRP", "shrunken log2 fold change": 0.0306}
{"sequence": "RRIRIRPPRLPRPRPRPFRSPRP", "shrunken log2 fold change": -0.221}
{"sequence": "RRIRIRPPRLPRPRPRPHDCPRP", "shrunken log2 fold change": -0.123}
{"sequence": "RRIRGRPPRLPRPRPRPLMPPRP", "shrunken log2 fold change": 0.285}
{"sequence": "RRIRLRPPRLPRPRPRPFMSPRP", "shrunken log2 fold change": -1.39}
{"sequence": "RRIRNRPPRLPRPRPRPLIAPRP", "shrunken log2 fold change": -0.305}
{"sequence": "RRIRIRPPRLPRPRPRPQAEPRP", "shrunken log2 fold change": 0.172}
{"sequence": "RRIRYRPPRLPRPRPRPFCPPRP", "shrunken log2 fold change": -0.878}
{"sequence": "RRIRIRPPRLPRPRPRPVNEPRP", "shrunken log2 fold change": -0.213}
{"sequence": "RRIRARPPRLPRPRPRPYAHPRP", "shrunken log2 fold change": -0.149}
{"sequence": "RRIRGRPPRLPRPRPRPNWTPRP", "shrunken log2 fold change": 0.0497}
{"sequence": "RRIRCRPPRLPRPRPRPNGCPRP", "shrunken log2 fold change": -0.0116}
{"sequence": "RRIRFRPPRLPRPRPRPEGKPRP", "shrunken log2 fold change": 0.143}
{"sequence": "RRIRRRPPRLPRPRPRPQPYPRP", "shrunken log2 fold change": -0.142}
{"sequence": "RRIRKRPPRLPRPRPRPDDEPRP", "shrunken log2 fold change": 0.143}
{"sequence": "RRIRLRPPRLPRPRPRPWSFPRP", "shrunken log2 fold change": 0.018}
{"sequence": "RRIRTRPPRLPRPRPRPDAWPRP", "shrunken log2 fold change": 0.285}
{"sequence": "RRIRARPPRLPRPRPRPNNLPRP", "shrunken log2 fold change": -0.561}
{"sequence": "RRIRHRPPRLPRPRPRPFGYPRP", "shrunken log2 fold change": -0.133}
{"sequence": "RRIRLRPPRLPRPRPRPALYPRP", "shrunken log2 fold change": 0.193}
{"sequence": "RRIRTRPPRLPRPRPRPAFLPRP", "shrunken log2 fold change": 0.228}
{"sequence": "RRIRRRPPRLPRPRPRPYFQPRP", "shrunken log2 fold change": -0.189}
{"sequence": "RRIRLRPPRLPRPRPRPYDTPRP", "shrunken log2 fold change": -0.925}
{"sequence": "RRIRKRPPRLPRPRPRPTTDPRP", "shrunken log2 fold change": 0.385}
{"sequence": "RRIRKRPPRLPRPRPRPVVAPRP", "shrunken log2 fold change": 0.876}
{"sequence": "RRIRPRPPRLPRPRPRPSSYPRP", "shrunken log2 fold change": -0.197}
{"sequence": "RRIRTRPPRLPRPRPRPHLMPRP", "shrunken log2 fold change": -0.139}
{"sequence": "RRIRCRPPRLPRPRPRPNHRPRP", "shrunken log2 fold change": -0.233}
{"sequence": "RRIRPRPPRLPRPRPRPFNYPRP", "shrunken log2 fold change": -0.269}
{"sequence": "RRIRERPPRLPRPRPRPKSTPRP", "shrunken log2 fold change": -0.42}
{"sequence": "RRIRQRPPRLPRPRPRPHHQPRP", "shrunken log2 fold change": 0.18}
{"sequence": "RRIRCRPPRLPRPRPRPTLKPRP", "shrunken log2 fold change": 0.017}
{"sequence": "RRIRARPPRLPRPRPRPFGMPRP", "shrunken log2 fold change": 0.0196}
{"sequence": "RRIRQRPPRLPRPRPRPQDPPRP", "shrunken log2 fold change": -0.239}
{"sequence": "RRIRWRPPRLPRPRPRPACHPRP", "shrunken log2 fold change": 0.442}
{"sequence": "RRIRARPPRLPRPRPRPQIAPRP", "shrunken log2 fold change": 0.499}
{"sequence": "RRIRVRPPRLPRPRPRPTFWPRP", "shrunken log2 fold change": 0.3}
{"sequence": "RRIRYRPPRLPRPRPRPHQAPRP", "shrunken log2 fold change": -0.0296}
{"sequence": "RRIRMRPPRLPRPRPRPQSCPRP", "shrunken log2 fold change": -0.00838}
{"sequence": "RRIRYRPPRLPRPRPRPPTIPRP", "shrunken log2 fold change": -0.424}
{"sequence": "RRIRMRPPRLPRPRPRPGRYPRP", "shrunken log2 fold change": 0.0164}
{"sequence": "RRIRNRPPRLPRPRPRPDTCPRP", "shrunken log2 fold change": -0.279}
{"sequence": "RRIRSRPPRLPRPRPRPMCTPRP", "shrunken log2 fold change": 0.0289}
{"sequence": "RRIRQRPPRLPRPRPRPETVPRP", "shrunken log2 fold change": -0.0886}
{"sequence": "RRIRHRPPRLPRPRPRPFLGPRP", "shrunken log2 fold change": 0.0354}
{"sequence": "RRIRNRPPRLPRPRPRPHALPRP", "shrunken log2 fold change": 0.0517}
{"sequence": "RRIRVRPPRLPRPRPRPDRTPRP", "shrunken log2 fold change": -0.252}
{"sequence": "RRIRLRPPRLPRPRPRPFQEPRP", "shrunken log2 fold change": -0.274}
{"sequence": "RRIRMRPPRLPRPRPRPHSQPRP", "shrunken log2 fold change": -0.00628}
{"sequence": "RRIRIRPPRLPRPRPRPSDIPRP", "shrunken log2 fold change": -0.366}
{"sequence": "RRIRIRPPRLPRPRPRPKCSPRP", "shrunken log2 fold change": 0.0422}
{"sequence": "RRIRERPPRLPRPRPRPVVVPRP", "shrunken log2 fold change": -0.112}
{"sequence": "RRIRYRPPRLPRPRPRPVDDPRP", "shrunken log2 fold change": -0.443}
{"sequence": "RRIRGRPPRLPRPRPRPKHVPRP", "shrunken log2 fold change": 0.0824}
{"sequence": "RRIRYRPPRLPRPRPRPEGAPRP", "shrunken log2 fold change": 0.295}
{"sequence": "RRIRCRPPRLPRPRPRPPGLPRP", "shrunken log2 fold change": 0.72}
{"sequence": "RRIRIRPPRLPRPRPRPKWHPRP", "shrunken log2 fold change": -0.27}
{"sequence": "RRIRERPPRLPRPRPRPPPHPRP", "shrunken log2 fold change": 0.619}
{"sequence": "RRIRPRPPRLPRPRPRPDCNPRP", "shrunken log2 fold change": -0.319}
{"sequence": "RRIRLRPPRLPRPRPRPEAWPRP", "shrunken log2 fold change": 0.0169}
{"sequence": "RRIRSRPPRLPRPRPRPNCDPRP", "shrunken log2 fold change": -0.00648}
{"sequence": "RRIRVRPPRLPRPRPRPYLVPRP", "shrunken log2 fold change": -0.511}
{"sequence": "RRIRHRPPRLPRPRPRPYQMPRP", "shrunken log2 fold change": -0.113}
{"sequence": "RRIRYRPPRLPRPRPRPLFIPRP", "shrunken log2 fold change": -0.683}
{"sequence": "RRIRSRPPRLPRPRPRPETRPRP", "shrunken log2 fold change": 0.192}
